Marks after values point to notes of the source that are not given here.
How the values were obtained:
male rats = experiment: Plasma metabolite profiling (GC-MS, LC-MS, SPE-LC-MS) in male rats dosed once daily over 28 days (OECD 407); type: in vivo, rat; conditions: male rats, plasma, high dose, day 28
Method in brief: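 Metabolites were measured by GC-MS (derivatised) and reversed-phase LC-MS, with steroids by online SPE-LC-MS, in plasma drawn from fasted rats on days 7, 14 and 28 of once-daily dosing (5/sex/group). Values are ratios versus sex-matched untreated controls, normalized to pool samples, with Welch-test p-values.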

female rats = experiment: Plasma metabolite profiling (GC-MS, LC-MS, SPE-LC-MS) in female rats dosed once daily over 28 days (OECD 407); type: in vivo, rat; conditions: female rats, plasma, high dose, day 28
Description: Each dose group in the studies consisted of five rats per sex. Additional groups of each 5 male and female animals served as controls. […] All animals of the animal population were kept under the same constant temperature (20-24±3° C.) and the same constant humidity (30-70%). The animals of the animal population were fed ad libitum. The food to be used was essentially free of chemical or microbial contaminants. Drinking water was also offered ad libitum. Accordingly, the water was free of chemical and microbial contaminants as laid down in the European Drinking Water Directive 98/83/EG. The illumination period was 12 hours light followed by 12 hours darkness (12 hours light, from 6:00 to 18:00, and 12 hours darkness, from 18:00 to 6:00). […] The test substances (compounds) in the Tables 1 to 17 below were dosed and administered as described in the Table 18.
In the morning of day 7, 14, and 28, blood was taken from the retroorbital venous plexus from fasted anaesthetized animals. From each animal, 1 ml of blood was collected with EDTA as anticoagulant. The samples were centrifuged for generation of plasma. All plasma samples were covered with a N2 atmosphere and then stored at −80° C. until analysis.
For mass spectrometry-based metabolite profiling analyses plasma samples were extracted and a polar and a non-polar (lipid) fraction was obtained. For GC-MS analysis, the non-polar fraction was treated with methanol under acidic conditions to yield the fatty acid methyl esters. Both fractions were further derivatised with O-methyl-hydroxyamine hydrochloride and pyridine to convert Oxogroups to O-methyloximes and subsequently with a silylating agent before analysis. In LC-MS analysis, both fractions were reconstituted in appropriate solvent mixtures. HPLC was performed by gradient elution on reversed phase separation columns. Mass spectrometric detection which allows target and high sensitivity MRM (Multiple Reaction Monitoring) profiling in parallel to a full screen analysis was applied as described in WO2003073464.
Steroids and their metabolites were measured by online SPE-LC-MS (Solid phase extraction-LC-MS).
Following comprehensive analytical validation steps, the data for each analyte were normalized against data from pool samples. These samples were run in parallel through the whole process to account for process variability. The significance of treatment group values specific for sex, treatmentduration and metabolite was determined by comparing means of the treated groups to the means of the respective untreated control groups using WELCH-test and quantified with treatment ratios versus control and p-values.
The identification of the most important biomarkers per toxicity pattern was done by a ranking of the analytes in the tables below. Therefore the metabolic changes in reference treatments of a given pattern (shown in the table) were compared with changes of the same metabolite in other unrelated treatments. […] The maximum absolute value of the respective TVALUE was taken to indicate the most important metabolite for the pattern.

## ACTH: adrenocorticotropin (ACTH) produced in the adenohypophysis of the pituitary gland (SYSMEHFRWGKPVGKKRRPVKVYPNGAEDESAEAFPLEF; Corticotropin; UniProt P01189 138-176, looked up)
Male rats
  3,4-Dihydroxyphenylalanine (DOPA), ratio versus control: 0.86 *
  3-Hydroxybutyrate, ratio versus control: 0.65 *
  18-Hydroxy-11-deoxycorticosterone, ratio versus control: 0.43 *
  21-Hydroxyprogesterone (11-Deoxycorticosterone), ratio versus control: 0.18 *
  Biotin, ratio versus control: 0.64 *
  Citrate, ratio versus control: 0.82 *
  Corticosterone, ratio versus control: 0.42 *
  Ketoleucine, ratio versus control: 0.81 *
  Lysophosphatidylethanolamine (C22:5), ratio versus control: 1.22 *
  Phosphatidylcholine No 04, ratio versus control: 0.8 *
  Progesterone, ratio versus control: 0.14 *
  Urea, ratio versus control: 1.28 *
Female rats
  3-Hydroxybutyrate, ratio versus control: 0.85 *
  5-Oxoproline, ratio versus control: 1.05 *
  18-Hydroxy-11-deoxycorticosterone, ratio versus control: 0.69 *
  21-Hydroxyprogesterone (11-Deoxycorticosterone), ratio versus control: 0.31 *
  Biotin, ratio versus control: 0.7 *
  Choline plasmalogen No 03, ratio versus control: 0.77 *
  Citrate, ratio versus control: 0.92 *
  Corticosterone, ratio versus control: 0.67 *
  Ketoleucine, ratio versus control: 0.76 *
  Lactate, ratio versus control: 0.68 *
  Lysophosphatidylcholine (C18:2), ratio versus control: 1.06 *
  Lysophosphatidylcholine (C20:4), ratio versus control: 1.11 *
  Malate, ratio versus control: 0.76 *
  Mannose, ratio versus control: 1.04 *
  TAG No 059, ratio versus control: 1.62 *
  Tyrosine, ratio versus control: 1.26 *
  alpha-Tocopherol, ratio versus control: 0.95 *

Source: patent US20150010928A1, “MEANS AND METHODS FOR ASSESSING AN ENDOCRINE DISEASE OR DISORDER” (priority 2012, published 2015)
